In patent publication US20050142135A1 (published 2005):

Tests used:
[1] = target: T1, human LH receptor, wild type (human, UniProt P22888 27-699); assay: 125I-hCG displacement / Scatchard; panels A-C
[2] = target: T1, human LH receptor, wild type; assay: 125I-hCG displacement / Scatchard; panels D-F
FSHR^S18A = target: T2, FSHR^S18A (human, UniProt P23945 18-695)
T2 chain: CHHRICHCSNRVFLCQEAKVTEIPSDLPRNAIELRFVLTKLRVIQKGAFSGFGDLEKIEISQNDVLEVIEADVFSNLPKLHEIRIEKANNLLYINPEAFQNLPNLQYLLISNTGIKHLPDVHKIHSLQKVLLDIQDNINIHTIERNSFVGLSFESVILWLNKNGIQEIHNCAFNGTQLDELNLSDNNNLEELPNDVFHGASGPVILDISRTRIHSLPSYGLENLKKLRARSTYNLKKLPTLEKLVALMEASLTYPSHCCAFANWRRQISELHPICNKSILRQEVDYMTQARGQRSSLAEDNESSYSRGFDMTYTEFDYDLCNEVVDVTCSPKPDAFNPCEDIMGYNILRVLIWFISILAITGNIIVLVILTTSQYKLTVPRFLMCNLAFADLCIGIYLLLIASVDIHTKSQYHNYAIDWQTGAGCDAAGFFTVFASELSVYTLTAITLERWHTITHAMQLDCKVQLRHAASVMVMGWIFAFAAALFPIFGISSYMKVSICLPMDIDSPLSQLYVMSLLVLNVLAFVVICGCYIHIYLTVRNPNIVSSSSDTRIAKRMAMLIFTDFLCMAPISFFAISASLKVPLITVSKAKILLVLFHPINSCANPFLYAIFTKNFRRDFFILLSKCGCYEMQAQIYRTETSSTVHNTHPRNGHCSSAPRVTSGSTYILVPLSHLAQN

FSHR^N10A = target: T3, FSHR^N10A (human, UniProt P23945 18-695)
T3 chain: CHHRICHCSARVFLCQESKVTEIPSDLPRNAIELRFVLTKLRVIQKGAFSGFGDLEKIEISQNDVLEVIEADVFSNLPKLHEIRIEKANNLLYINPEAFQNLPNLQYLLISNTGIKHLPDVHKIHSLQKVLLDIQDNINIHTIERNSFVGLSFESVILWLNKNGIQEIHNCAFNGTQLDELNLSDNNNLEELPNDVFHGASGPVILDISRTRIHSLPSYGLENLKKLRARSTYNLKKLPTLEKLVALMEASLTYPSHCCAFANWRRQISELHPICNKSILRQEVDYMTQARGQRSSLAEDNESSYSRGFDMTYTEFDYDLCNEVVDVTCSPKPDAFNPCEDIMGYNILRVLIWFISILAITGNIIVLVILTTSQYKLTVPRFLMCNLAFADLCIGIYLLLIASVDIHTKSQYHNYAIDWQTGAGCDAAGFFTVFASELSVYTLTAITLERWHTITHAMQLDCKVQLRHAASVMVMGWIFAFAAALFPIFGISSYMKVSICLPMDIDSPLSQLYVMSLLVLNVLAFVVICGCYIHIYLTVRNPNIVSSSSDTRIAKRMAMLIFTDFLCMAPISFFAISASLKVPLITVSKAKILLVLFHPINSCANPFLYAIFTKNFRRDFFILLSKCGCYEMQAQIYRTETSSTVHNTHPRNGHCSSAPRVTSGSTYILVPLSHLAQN

FSHR^F13A = target: T4, FSHR^F13A (human, UniProt P23945 18-695)
T4 chain: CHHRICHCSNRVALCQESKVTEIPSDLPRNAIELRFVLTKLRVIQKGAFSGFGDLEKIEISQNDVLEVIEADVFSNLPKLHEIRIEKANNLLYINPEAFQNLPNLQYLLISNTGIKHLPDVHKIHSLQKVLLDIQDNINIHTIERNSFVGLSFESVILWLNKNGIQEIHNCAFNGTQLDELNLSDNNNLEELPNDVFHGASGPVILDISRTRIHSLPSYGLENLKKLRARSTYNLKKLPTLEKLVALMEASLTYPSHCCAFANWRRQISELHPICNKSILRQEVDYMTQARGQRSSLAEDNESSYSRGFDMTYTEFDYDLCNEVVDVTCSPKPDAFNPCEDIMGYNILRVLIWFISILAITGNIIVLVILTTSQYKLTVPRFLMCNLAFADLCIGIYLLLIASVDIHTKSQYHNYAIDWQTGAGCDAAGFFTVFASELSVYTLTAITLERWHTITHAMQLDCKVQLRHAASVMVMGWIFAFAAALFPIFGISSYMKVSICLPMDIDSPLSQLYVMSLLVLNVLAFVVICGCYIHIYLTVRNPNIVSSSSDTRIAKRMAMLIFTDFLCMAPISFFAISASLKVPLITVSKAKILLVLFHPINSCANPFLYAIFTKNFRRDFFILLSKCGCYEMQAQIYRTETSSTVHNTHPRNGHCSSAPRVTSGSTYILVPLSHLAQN

FSHR^S9A = target: T5, FSHR^S9A (human, UniProt P23945 18-695)
T5 chain: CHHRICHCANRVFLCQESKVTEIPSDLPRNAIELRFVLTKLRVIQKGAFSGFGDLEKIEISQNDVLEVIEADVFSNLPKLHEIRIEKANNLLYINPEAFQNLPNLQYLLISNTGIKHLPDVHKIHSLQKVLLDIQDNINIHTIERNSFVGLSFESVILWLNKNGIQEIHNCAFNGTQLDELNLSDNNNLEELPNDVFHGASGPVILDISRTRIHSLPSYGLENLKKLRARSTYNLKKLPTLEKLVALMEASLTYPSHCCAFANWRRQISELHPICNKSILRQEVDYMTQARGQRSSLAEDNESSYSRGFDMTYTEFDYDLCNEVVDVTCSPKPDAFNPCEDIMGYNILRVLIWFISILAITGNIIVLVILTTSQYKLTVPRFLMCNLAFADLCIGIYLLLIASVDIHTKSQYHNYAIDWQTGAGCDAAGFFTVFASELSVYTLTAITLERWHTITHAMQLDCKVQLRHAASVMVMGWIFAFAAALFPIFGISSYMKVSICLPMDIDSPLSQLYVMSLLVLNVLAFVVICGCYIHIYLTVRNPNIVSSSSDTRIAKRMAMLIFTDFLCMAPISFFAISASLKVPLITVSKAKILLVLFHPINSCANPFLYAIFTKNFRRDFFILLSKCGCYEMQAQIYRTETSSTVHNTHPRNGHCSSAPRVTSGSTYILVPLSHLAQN

FSHR^V12A = target: T6, FSHR^V12A (human, UniProt P23945 18-695)
T6 chain: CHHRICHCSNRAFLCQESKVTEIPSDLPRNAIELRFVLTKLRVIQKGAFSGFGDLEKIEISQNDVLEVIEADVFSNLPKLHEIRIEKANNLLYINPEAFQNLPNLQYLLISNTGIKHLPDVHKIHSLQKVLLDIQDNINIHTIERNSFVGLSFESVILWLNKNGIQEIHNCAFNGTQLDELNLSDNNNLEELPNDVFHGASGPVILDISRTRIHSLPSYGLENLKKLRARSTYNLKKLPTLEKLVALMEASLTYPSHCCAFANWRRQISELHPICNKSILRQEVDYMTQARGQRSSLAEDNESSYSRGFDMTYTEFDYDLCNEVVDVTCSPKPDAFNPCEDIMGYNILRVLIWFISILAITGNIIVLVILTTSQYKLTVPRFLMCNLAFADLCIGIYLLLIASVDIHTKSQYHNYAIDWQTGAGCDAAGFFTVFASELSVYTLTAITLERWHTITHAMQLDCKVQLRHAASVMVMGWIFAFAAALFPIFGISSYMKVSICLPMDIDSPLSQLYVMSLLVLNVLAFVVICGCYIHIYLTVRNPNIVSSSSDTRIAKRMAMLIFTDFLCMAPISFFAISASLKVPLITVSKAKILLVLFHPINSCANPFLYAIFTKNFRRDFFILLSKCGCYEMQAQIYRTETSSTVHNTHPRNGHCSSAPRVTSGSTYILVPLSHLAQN

FSHR^L14A = target: T7, FSHR^L14A (human, UniProt P23945 18-695)
T7 chain: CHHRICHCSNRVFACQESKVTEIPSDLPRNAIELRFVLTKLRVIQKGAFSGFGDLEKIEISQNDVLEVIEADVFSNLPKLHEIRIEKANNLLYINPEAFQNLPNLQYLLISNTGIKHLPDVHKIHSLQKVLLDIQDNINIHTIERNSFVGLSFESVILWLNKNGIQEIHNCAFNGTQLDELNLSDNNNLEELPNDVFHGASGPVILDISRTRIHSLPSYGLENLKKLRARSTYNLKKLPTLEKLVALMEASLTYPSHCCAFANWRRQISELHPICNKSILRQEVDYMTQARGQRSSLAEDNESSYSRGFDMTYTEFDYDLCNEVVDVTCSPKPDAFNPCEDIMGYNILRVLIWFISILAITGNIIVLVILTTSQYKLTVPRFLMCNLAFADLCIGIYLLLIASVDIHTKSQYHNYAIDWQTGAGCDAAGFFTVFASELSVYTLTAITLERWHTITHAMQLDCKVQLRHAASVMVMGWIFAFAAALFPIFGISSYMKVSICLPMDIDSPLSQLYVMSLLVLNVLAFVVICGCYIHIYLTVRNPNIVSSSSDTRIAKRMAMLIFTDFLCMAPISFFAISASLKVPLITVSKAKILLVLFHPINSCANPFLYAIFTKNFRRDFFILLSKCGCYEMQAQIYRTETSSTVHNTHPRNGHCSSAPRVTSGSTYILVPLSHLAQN

C = assay: 125I-FSH displacement, Scatchard
P = assay: 125I-FSH displacement, Scatchard
D = assay: 125I-FSH displacement, Scatchard
K590 Q = assay: 125I-FSH displacement / Scatchard
P582 E = assay: 125I-FSH displacement / Scatchard
P582 R = assay: 125I-FSH displacement / Scatchard
P582 C = assay: 125I-FSH displacement / Scatchard
P582 Y = assay: 125I-FSH displacement / Scatchard
P582 L = assay: 125I-FSH displacement / Scatchard
P582 Q = assay: 125I-FSH displacement / Scatchard
P582 S = assay: 125I-FSH displacement / Scatchard
P582 D = assay: 125I-FSH displacement / Scatchard
P582 F = assay: 125I-FSH displacement / Scatchard

T1 sequence (P22888 27-699): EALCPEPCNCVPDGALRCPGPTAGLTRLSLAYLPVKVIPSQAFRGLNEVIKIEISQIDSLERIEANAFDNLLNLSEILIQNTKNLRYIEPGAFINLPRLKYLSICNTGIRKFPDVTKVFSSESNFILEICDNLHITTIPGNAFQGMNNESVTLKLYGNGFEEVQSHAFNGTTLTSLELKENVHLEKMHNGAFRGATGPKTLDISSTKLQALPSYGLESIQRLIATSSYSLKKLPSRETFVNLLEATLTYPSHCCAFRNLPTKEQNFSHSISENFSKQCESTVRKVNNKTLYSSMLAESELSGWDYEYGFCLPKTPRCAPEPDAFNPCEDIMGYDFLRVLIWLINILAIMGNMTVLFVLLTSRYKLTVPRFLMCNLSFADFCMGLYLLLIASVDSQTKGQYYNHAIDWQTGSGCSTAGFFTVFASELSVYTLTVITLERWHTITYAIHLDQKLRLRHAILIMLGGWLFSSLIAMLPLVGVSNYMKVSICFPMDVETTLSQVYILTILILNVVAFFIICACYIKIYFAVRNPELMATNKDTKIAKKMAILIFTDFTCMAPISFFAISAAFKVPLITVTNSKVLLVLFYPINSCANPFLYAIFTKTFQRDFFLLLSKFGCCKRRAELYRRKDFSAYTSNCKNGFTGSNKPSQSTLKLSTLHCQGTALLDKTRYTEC

B1: hCG (ligand)
chain 1: not shown
chain 2: SKEPLRPRCRPINATLAVEKEGCPVCITVNTTICAGYCPTMTRVLQGVLPALPQVVCNYRDVRFESIRLPGCPRGVNPVVSYAVALSCQCALCRRSTTDCGGPKDHPLTCDDPRFQDSSSSKAPPPSLPSPSRLPGPSDTPILPQ
Kd [1]: 0.412 nM | Kd [2]: 0.412 nM

B2: human FSH (ligand)
chain 1: not shown
chain 2: NSCELTNITIAIEKEECRFCISINTTWCAGYCYTRDLVYKDPARPKIQKTCTFKELVYETVRVPGCAHHADSLYTYPVATQCHCGKCDSDSTDCTVRGLGPSYCSFGEMKE
Kd (FSHR^S18A): 3.64 nM | Kd (FSHR^N10A): 1.56 nM | Kd (FSHR^F13A): 2.56 nM | Kd (FSHR^S9A): 2.78 nM | Kd (FSHR^V12A): 2.53 nM | Kd (FSHR^L14A): 1.37 nM

B3: FSH (ligand)
chain 1: not shown
chain 2: NSCELTNITIAIEKEECRFCISINTTWCAGYCYTRDLVYKDPARPKIQKTCTFKELVYETVRVPGCAHHADSLYTYPVATQCHCGKCDSDSTDCTVRGLGPSYCSFGEMKE
Kd (C): 3.9 nM | Kd (P): 1.6 nM | Kd (D): 1.2 nM | Kd (K590 Q): 19.6 nM | Kd (P582 E): 6.5 nM | Kd (P582 R): 4.1 nM | Kd (P582 C): 2.4 nM | Kd (P582 Y): 4.3 nM | Kd (P582 L): 1.9 nM | Kd (P582 Q): 6.2 nM | Kd (P582 S): 4.5 nM | Kd (P582 D): 3.6 nM | Kd (P582 F): 4.7 nM
